Assay results from patent US20130040894A1, “INHIBITION OR ACTIVATION OF SERINE/THREONINE ULK3 KINASE ACTIVITY” (TALLINN UNIVERSITY OF TECHNOLOGY, priority 2009, published 2013).

System: GLI1
Assay: In vitro kinase assay, phosphorylation of GLI1
Assay type: biochemical, human
Description: Three overlapping human GLI1 domains corresponding to amino acids 1-433, 426-754 and 726-1106 were cloned into pET-15b vector (Novagen) between NdeI and BamHI sites. GLI1 amino acid sequence is provided as SEQ ID NO: 2). The fragments were expressed in BL21(DE3)pLys E. coli strain overnight at 21° C. using 0.1 mM IPTG and purified using Ni-CAM™ HC resin (Sigma-Aldrich) according to the manufacturer's recommendations. The proteins were eluted by PBS and verified by Western Blot (WB).
HEK293 cells were transfected with 13.5 μg of FLAG-tagged constructs expressed GLI1, GLI2, GLI3, ULK3, ULK3(K44R), ULK3(K139R) or FLAG-CMV-4 empty vector on 10 cm plates. The cells were lysed with 0.5 ml of Lysis Buffer (50 mM Tris HCl, pH 7.4, 150 mM NaCl, 1 mM EDTA, 1% Triton X-100) containing protease inhibitor cocktail (PIC) (Roche Applied Science). The lysates were centrifuged for 15 min at 4° C. and 15000 g, and the supernatants were used for immunoprecipitation (IP). IP was performed using anti-FLAG-M2 affinity gel (Sigma-Aldrich) in batch format according to the manufacture's instructions. Immune complexes were washed three times with 500 μl of Kinase Buffer (KB) (50 mM HEPES, pH 7.4, 20 mM MgCl2, 25 μM ATP) and resuspended in 12.5 μl of KB. One fifth of the immuno-complexes was subjected to WB and the rest was used for the kinase assay.
Kinase reactions were carried out in KB in a total volume of 20 μl of in the presence of 1 μCi of [γ-^32P]ATP per reaction. We used 1 μl of the immunoprecipitated ULK3, ULK3(K44R) or ULK3(K139R) mixed with 5 μl of the GLI-M2 immunocomplexes or 5 μl of bacterially expressed and purified His-GLI1 fragments. Kinase reactions were held at 30° C. for 30 min and terminated by adding of 5 μl of 4× Laemmli Sample Buffer. Proteins were resolved by SDS-PAGE. The gel was dried at 80° C. for 2 h, and autoradiography was performed using Bio-Rad Personal Molecular Imager FX.
We also assayed whether ULK3 is able to phosphorylate GLI proteins. FLAG-tagged GLI1, GLI2 and GLI3 proteins were expressed and immunoprecipitated from HEK293 cells and used as substrates for immunopurified ULK3 in the in vitro kinase assay. ULK3 was able to phosphorylate GLI proteins but with different efficiency (FIG. 3B). […] To support these findings and identify the regions in GLI1 protein that are phosphorylated by ULK3, we used bacterially expressed His-tagged fragments of GLI1 as substrate for ULK3 kinase. Two of them—GLI1(1-433) and GLI1(726-1106)—were phosphorylated by ULK3.

[1] = bacterially expressed His-tagged fragment

B1: ULK3: human serine/threonine kinase, 472 amino acids (SEQ ID NO: 1), overexpressed from cloned cDNA or immunopurified FLAG-tagged (protein, listed as Homo sapiens)
chain: MAGPGWGPPRLDGFILTERLGSGTYATVYKAYAKKDTREVVAIKCVAKKSLNKASVENLLTEIEILKGIRHPHIVQLKDFQWDSDNIYLIMEFCAGGDLSRFIHTRRILPEKVARVFMQQLASALQFLHERNISHLDLKPQNILLSSLEKPHLKLADFGFAQHMSPWDEKHVLRGSPLYMAPEMVCQRQYDARVDLWSMGVILYEALFGQPPFASRSFSELEEKIRSNRVIELPLRPLLSRDCRDLLQRLLERDPSRRISFQDFFAHPWVDLEHMPSGESLGRATALVVQAVKKDQEGDSAAALSLYCKALDFFVPALHYEVDAQRKEAIKAKVGQYVSRAEELKAIVSSSNQALLRQGTSARDLLREMARDKPRLLAALEVASAAMAKEEAAGGEQDALDLYQHSLGELLLLLAAEPPGRRRELLHTEVQNLMARAEYLKEQVKMRESRWEADTLDKEGLSESVRSSCTLQ
modifications: PEPTIDE (1)..(472) ULK3
phosphorylation of GLI1 (FLAG-tagged GLI1 immunoprecipitated from HEK293 cells): significantly lower intensity as compared to GLI2
phosphorylation of GLI1(1-433) fragment [1]: phosphorylated
phosphorylation of GLI1(726-1106) fragment [1]: phosphorylated
phosphorylation of central part of GLI1 (amino acids 426-754) [1]: not phosphorylated
